Literature values as cited in publication PMC6522352.

Target: IL-9 (Mus musculus) (UniProt P15247)
UniProt P15247, sequence (P15247 19-144): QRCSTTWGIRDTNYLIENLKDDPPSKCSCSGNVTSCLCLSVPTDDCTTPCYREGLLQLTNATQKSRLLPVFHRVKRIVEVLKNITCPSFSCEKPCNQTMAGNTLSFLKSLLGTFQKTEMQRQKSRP

In the case of “IL-9 receptor alpha (from UniProt Q01114)”, the Kd is given as 100 pM.
